According to patent publication US12618050B2, “Engineered polypeptides that exhibit increased catalytic efficiency for unnatural cofactors and uses thereof” (The Regents of the University of California, priority 2018, dated 2026):

B1: A93K: Bs GDH with A93K substitution (SEQ ID NO:3) (protein)
chain: MYPDLKGKVVAITGAASGLGKAMAIRFGKEQAKVVINYYSNKQDPNEVKEEVIKAGGEAVVVQGDVTKEEDVKNIVQTAIKEFGTLDIMINNKGLENPVPSHEMPLKDWDKVIGTNLTGAFLGSREAIKYFVENDIKGNVINMSSVHEVIPWPLFVHYAASKGGIKLMTETLALEYAPKGIRVNNIGPGAINTPINAEKFADPKQKADVESMIPMGYIGEPEEIAAVAAWLASKEASYVTGITLFADGGMTQYPSFQAGRG
modifications: A93K mutant GDH coding sequence
B2: Y39Q: Bs GDH with Y39Q substitution (SEQ ID NO:4) (protein)
chain: MYPDLKGKVVAITGAASGLGKAMAIRFGKEQAKVVINYQSNKQDPNEVKEEVIKAGGEAVVVQGDVTKEEDVKNIVQTAIKEFGTLDIMINNAGLENPVPSHEMPLKDWDKVIGTNLTGAFLGSREAIKYFVENDIKGNVINMSSVHEVIPWPLFVHYAASKGGIKLMTETLALEYAPKGIRVNNIGPGAINTPINAEKFADPKQKADVESMIPMGYIGEPEEIAAVAAWLASKEASYVTGITLFADGGMTQYPSFQAGRG
modifications: Y39Q mutant GDH coding sequence
B3: A93K-Y39Q: Bs GDH variant A93K-Y39Q (protein)
chain: MYPDLKGKVVAITGAASGLGKAMAIRFGKEQAKVVINYQSNKQDPNEVKEEVIKAGGEAVVVQGDVTKEEDVKNIVQTAIKEFGTLDIMINNKGLENPVPSHEMPLKDWDKVIGTNLTGAFLGSREAIKYFVENDIKGNVINMSSVHEVIPWPLFVHYAASKGGIKLMTETLALEYAPKGIRVNNIGPGAINTPINAEKFADPKQKADVESMIPMGYIGEPEEIAAVAAWLASKEASYVTGITLFADGGMTQYPSFQAGRG
B4: I195S (protein)
chain: MYPDLKGKVVAITGAASGLGKAMAIRFGKEQAKVVINYYSNKQDPNEVKEEVIKAGGEAVVVQGDVTKEEDVKNIVQTAIKEFGTLDIMINNAGLENPVPSHEMPLKDWDKVIGTNLTGAFLGSREAIKYFVENDIKGNVINMSSVHEVIPWPLFVHYAASKGGIKLMTETLALEYAPKGIRVNNIGPGAINTPSNAEKFADPKQKADVESMIPMGYIGEPEEIAAVAAWLASKEASYVTGITLFADGGMTQYPSFQAGRG
B5: I195T (protein)
chain: MYPDLKGKVVAITGAASGLGKAMAIRFGKEQAKVVINYYSNKQDPNEVKEEVIKAGGEAVVVQGDVTKEEDVKNIVQTAIKEFGTLDIMINNAGLENPVPSHEMPLKDWDKVIGTNLTGAFLGSREAIKYFVENDIKGNVINMSSVHEVIPWPLFVHYAASKGGIKLMTETLALEYAPKGIRVNNIGPGAINTPTNAEKFADPKQKADVESMIPMGYIGEPEEIAAVAAWLASKEASYVTGITLFADGGMTQYPSFQAGRG
B6: S17Q-P194N (protein)
chain: MYPDLKGKVVAITGAAQGLGKAMAIRFGKEQAKVVINYYSNKQDPNEVKEEVIKAGGEAVVVQGDVTKEEDVKNIVQTAIKEFGTLDIMINNAGLENPVPSHEMPLKDWDKVIGTNLTGAFLGSREAIKYFVENDIKGNVINMSSVHEVIPWPLFVHYAASKGGIKLMTETLALEYAPKGIRVNNIGPGAINTNINAEKFADPKQKADVESMIPMGYIGEPEEIAAVAAWLASKEASYVTGITLFADGGMTQYPSFQAGRG
B7: L19H-I191S (protein)
chain: MYPDLKGKVVAITGAASGHGKAMAIRFGKEQAKVVINYYSNKQDPNEVKEEVIKAGGEAVVVQGDVTKEEDVKNIVQTAIKEFGTLDIMINNAGLENPVPSHEMPLKDWDKVIGTNLTGAFLGSREAIKYFVENDIKGNVINMSSVHEVIPWPLFVHYAASKGGIKLMTETLALEYAPKGIRVNNIGPGASNTPINAEKFADPKQKADVESMIPMGYIGEPEEIAAVAAWLASKEASYVTGITLFADGGMTQYPSFQAGRG

Key:
[1] = GDH enzymatic assay with NMN^+ as cofactor; format: biochemical; conditions: without I195R
Method: GDH enzymatic assays. The GDH activity was measured as described in Hilt et al. (Biochimica et biophysica acta 1076(2):298-304 (1991)). The reactions were started by adding the purified protein to the assay mixture containing 35 mM Tris-HCl buffer (pH 8.0), 3 mM NAD^+, NADP^+ or NMN^+ and 140 mM glucose. The absorbance variation at 340 nm was detected by a spectrophotometer at 25° C.

[2] = Protein expression levels of GDH variants; design: species or system Escherichia coli; conditions: expressed in E. coli
Method: Proteins were purified as 6×His tag fusion at the N-terminus. E. coli BL21 (DE3) with plasmids were inoculated into LB medium with 200 mg L^−1 ampicillin. Cells were induced with 0.5 mM IPTG and expressed for 24 hours at 30° C. with shaking at 250 rpm. BM3 cytochrome P450 was extracted with the EMD Millipore™ BugBuste Plus Lysonase Kit and purified using the HisPur™ Ni-NTA Superflow Purification System according to the manufacturer's instructions. Other proteins were purified using His-Spin Protein Miniprep kit (Zymo Research Corporation, CA). The purified proteins were quantified by Bradford assay.

Molecule | impact of mutation on activity towards NMN^+ [1] | Expression level [2]
B1 | lack of impact on activity | 
B2 | lack of impact on activity | 
B3 | lack of impact on activity | 
B4 |  | 96.33 μg protein/ml culture
B5 |  | 105.51 μg protein/ml culture
B6 |  | 117.63 μg protein/ml culture
B7 |  | No expression (<1) μg protein/ml culture
